In patent US20180037620:

How the values were obtained:
Assay in all cases: cell_activity
Conditions in all cases: 79/528 porcine fibroblast clones; both TALEN pairs (5-2 and 3-2) plus HR oligo used together
[1] = tested on: TALEN ETV2 3-2 Right
[2] = tested on: TALEN ETV2 5-2 Left
[3] = tested on: TALEN ETV2 3-2 Left
[4] = tested on: TALEN ETV2 5-2 Right

CCCCTAAGGGTCCTG (double strand) [ETV2 3-2 right half-site]
activity (% of clones homozygous for deletion) [1]: 15

CTGGCCGGAAATCCCC (double strand) [ETV2 5-2 left half-site]
activity (% of clones homozygous for deletion) [2]: 15

GATCCCAAGTCACACC (double strand) [ETV2 3-2 left half-site]
activity (% of clones homozygous for deletion) [3]: 15

GGGCTGCACCAGGCT (double strand) [ETV2 5-2 right half-site]
activity (% of clones homozygous for deletion) [4]: 15
